The values that follow come from PMC6123711, “Conformational signatures in β-arrestin2 reveal natural biased agonism at a G-protein-coupled receptor” (Communications Biology, 2018).

For one test, the system named is human Galr2. Kind of test: Recruitment of β-arrestin2-FlasH1-3 to Galr2 (NanoBit). It counts as cell-based. The conditions noted are these: NanoBit luminescence. An excerpt:
To investigate the effects of GPCR activation on the dynamics of β-arrestin2 conformation, we developed a series of FlasH BRET conformational biosensors[31],[32] by inserting the six-amino-acid motif, CCPGCC, immediately after the amino acid residue 140 (FlasH1), 263 (FlasH2), and 410 (FlasH3), respectively, into the human β-arrestin2 (Fig. 7a, b). Due to its characteristics (e.g., small size, stable, and bright and sustained luminescence)[33], we covalently linked the Nluc to the N terminus of β-arrestin2 during probe design. Each probe (Nluc–β-arrestin2–FlasH1, 2, and 3) was designed to measure BRET between Nluc and a fluorescein arsenical acceptor located at one of three positions along β-arrestin2. […] All three ligands were able to recruit these β-arrestin2–FlasH constructs to induce luminescence signals, although some signals were lower than that of wild-type β-arrestin2 (Fig. 7c). […]
The arrows indicate the time for treatment with the corresponding agonist. d Nluc–β-arrestin2–FlasH1-3 “conformational hallmarks” of β-arrestin2 by binding to Galr2. The bar graphs depict mean ± s.e.m. values of independent biological replicates (n = 3). *P < 0.05, **P < 0.005, statistically significant differences versus Galanin-stimulated control as determined by a one-way analysis of variance (ANOVA). […]

The next test concerns mice. The conditions noted are these: cited from earlier work. An excerpt:
(§1) G-protein-coupled receptors (GPCRs) are the largest family of cell surface receptors that communicate extracellular stimuli to the cell interior[1]. Biased ligands are of particular interest because they offer the possibility to design a novel class of therapeutic agents. In some GPCRs, biased ligands that preferentially activate G-protein-dependent signaling have therapeutic potential. […] Most descriptions of biased ag ...

The test system of test [1] is human β-arrestin2 (Galr2-stimulated). Nature of the test: Intramolecular FlasH BRET at β-arrestin2 conformational biosensors. In kind it is cell-based. The conditions noted are these: HEK293 cells, 10 μM agonist. An excerpt: To investigate the effects of GPCR activation on the dynamics of β-arrestin2 conformation, we developed a series of FlasH BRET conformational biosensors[31],[32] by inserting the six-amino-acid motif, CCPGCC, immediately after the amino acid residue 140 (FlasH1), 263 (FlasH2), and 410 (FlasH3), respectively, into the human β-arrestin2 (Fig. 7a, b). Due to its characteristics (e.g., small size, stable, and bright and sustained luminescence)[33], we covalently linked the Nluc to the N terminus of β-arrestin2 during probe design. Each probe (Nluc–β-arrestin2–FlasH1, 2, and 3) was designed to measure BRET between Nluc and a fluorescein arsenical acceptor located at one of three positions along β-arrestin2. We hypothesized that observing changes in BRET efficiency from multiple sites would produce a β-arrestin2 conformational hallmark characteristic for each ligand[31]. We used a structural complementation assay based on NanoBit technology to test whether the insertion of the FlasH motif would have an effect on β-arrestin2 recruitment. All three ligands were able to recruit these β-arrestin2–FlasH constructs to induce luminescence signals, although some signals were lower than that of wild-type β-arrestin2 (Fig. 7c). […]
Intramolecular BRET at β-arrestin2 conformational biosensors was measured based on the steps and procedures previously described. […]
For orientation: Bioluminescence resonance energy transfer reports proximity on the nanometre scale.

Test [2] deals with T1, Galr2–β-arrestin2 complex (Homo sapiens, UniProt O43603).
T1 construct: expressed in transfected cells; host or cells: HEK293 cells, transient transfection with Lipofectamine 2000; b62 only says 'the cells'
T1 sequence (O43603 whole entry): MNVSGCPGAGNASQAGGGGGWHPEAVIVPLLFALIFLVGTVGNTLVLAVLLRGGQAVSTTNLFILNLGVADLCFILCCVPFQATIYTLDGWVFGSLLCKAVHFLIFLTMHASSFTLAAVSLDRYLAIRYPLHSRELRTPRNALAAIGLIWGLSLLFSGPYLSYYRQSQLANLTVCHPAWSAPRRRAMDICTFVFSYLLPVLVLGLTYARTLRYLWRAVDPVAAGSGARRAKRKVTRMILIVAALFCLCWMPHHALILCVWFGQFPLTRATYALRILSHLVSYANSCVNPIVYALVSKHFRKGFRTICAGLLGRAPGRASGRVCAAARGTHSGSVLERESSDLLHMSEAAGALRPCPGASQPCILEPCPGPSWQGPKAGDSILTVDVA
T1 sequence (P32121 whole entry partner): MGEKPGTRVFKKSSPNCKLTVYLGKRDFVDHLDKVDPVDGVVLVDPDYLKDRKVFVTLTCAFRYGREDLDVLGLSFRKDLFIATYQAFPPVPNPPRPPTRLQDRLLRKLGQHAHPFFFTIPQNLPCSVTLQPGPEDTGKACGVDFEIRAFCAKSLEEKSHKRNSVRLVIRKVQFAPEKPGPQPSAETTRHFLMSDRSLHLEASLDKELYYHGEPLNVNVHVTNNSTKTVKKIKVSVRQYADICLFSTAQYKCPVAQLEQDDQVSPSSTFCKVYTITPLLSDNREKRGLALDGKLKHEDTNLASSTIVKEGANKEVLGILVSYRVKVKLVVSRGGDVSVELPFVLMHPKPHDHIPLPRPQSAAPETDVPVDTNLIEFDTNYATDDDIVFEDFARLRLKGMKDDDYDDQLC
Kind of test: Reversal assay for dissociation kinetics. It counts as cell-based.
Procedure: The decay of the luminescent signal may reflect dissociation rate of ligand from Galr2 as the β-arrestin2 response returns to basal levels in washout experiments.
Ligand removal was performed by simply changing the medium containing no ligand and then immediately continue measuring luminescence. Samples with no ligand removal were used as a control. […] The results are expressed as the mean ± s.e.m. values of two independent experiments
One day before transfection, the cells were seeded in 96-well plates at a density of 2.5 × 10^4 cells per well. […] At 24 h post transfection, the medium was aspirated and replaced with 100 μl OPTIMEM and incubated at room temperature. After a 10-min incubation, 25 μl substrate (furimazine) was added, and once every minute subsequent luminescence measurements were taken for 10 min for signal stabilization. A total of 10 μl ligand was then added to each well and luminescence measurements were recorded immediately and once every minute during 10 min for signal stabilization. After that time wells allocated for ligand removal, ligand containing medium was replaced for medium containing only furimazine substrate and no ligand. Immediately continued recording the time course luminescence values once every minute during 1 h.

In test [3] the test system is diet-induced obese rodents. The following applies: cited from earlier work.
Text: as §1

Test [4] has as its system galanin receptor 1 (Galr1). The following applies: cited from earlier work.
Text: as §1

In another test the test system is goldfish. The conditions noted are these: cited from earlier work.
Text: as §1

In test [5] the test system is luteinizing hormone (LH) secretion. The conditions noted are these: cited from earlier work.
Text: as §1

For the molecule Galanin [reference compound], in the test on human Galr2, the “recruitment of β-arrestin2–FlasH1-3 constructs” value was “maximal response”. Further, the food intake result in the test on mice was “food intake increase”.

B1: Spexin (peptide, UniProt Q9BT56 27-116, looked up)
Spexin: APQRLLERRNWTPQAMLYLKGAQGRRFISDQSRRKDLSDRPLPERRSPNPQLLTIPEAATILLASLQKSPEDEEKNFDQTRFLEDSLLNW
modifications: Spexin
notes: endogenous peptide ligand of Galr2 and Galr3; synthesized by AnyGen
Regarding B1, the “ΔNet BRET in Nluc–β-arrestin2–FlasH1-3 versus Galanin” value in test [1] (2 min, n = 3, each probe) was “significantly different from those observed in Galanin”. Besides, in test [1] (FlasH1-3 biosensors), the “ΔNet BRET similarity between Spexin and Fmoc-dA4-dQ14” value is “very similar between Spexin and Fmoc-dA4-dQ14 except for the FlasH3 conformational biosensor”. For the same molecule, the “decrease in luminescence signal after ligand removal” value in test [2] (10 μM agonist, medium change, two independent experiments) is given as “rapid decrease in luminescence signal back to basal levels”. In addition, the “half-life (t1/2) of Galr2–β-arrestin2 complex luminescence decay after ligand removal” value in test [2] (HEK293 cells, 10 μM agonist, washout, indirect measure of ligand dissociation, mean ± s.e.m. of two independent experiments) worked out at 3.35 ± 0.7 min. For the same molecule, the “residence time relative to Galanin” value in test [2] (reversal dissociation assay) is recorded as “significantly shorter than Galanin”. In addition, the body weight result in test [3] was “weight loss”. For the same molecule, the “activation of Galr1” value in test [4] is reported as “does not activate Galr1”. For the same molecule, the appetite entry in the test with goldfish is “suppresses appetite”. The “LH secretion, goldfish” value in test [5] is given as “attenuates LH secretion”.
